The nature of this data set: label from the status in PepcDB records.

For “VKRAVQKTSDLIVLGLPWKTTEQDLKEYFSTFGEVLMVQVKKDLKTGHSKGFGFVRFTEYETQVKVMSQRHMIDGRWCDCKLPNSKQSQD”, the protein production entry is on record as “not failed”. Take “VLIIPGGGYRRIVYEREGLDVGRWIAGQGYTAFILSYRMPSVNGYYSFADAKNALNFISYWAGMSERTFKSVGCMGFSAGGHLAGYITHLHYEEETSVRPDWMALIYPVISLDRSIAHQGCRKRLLDAGESEYSASLENSVTEYMPPVFIVHATDDKDVPVIHSLRYFNSIRDKGHHAEAHFFDKGGHGFGVSGKNGYPIEKWQSLLLEWLAEH”: the protein production entry was “failed”. For the sequence “VMRLVTLRSHDQYNTTIYAMDDRYRGVFGRRDVLFMNEQDMAAQGLEHGDRVDIHTALPGSALTLEDITVVAYGIAPGTVGAYYPEANVLVPLNYLDEESGTPSYKSVPVRLTLRSKEIRPLVGGR”, the protein production result was “not failed”. As to “VNPLLDSLQPYPFEKLRALFKDVTPNAGLAHISFGIGEPKHPTPALIRDAVVASLGGLSAYPATSGSPALRESIAKWVTQRYNLPPVDPATQVLPVSGSREALFSLAQTVLDPQKNAGGEPAIVLCPNPFYQIYEGAAILAGAQPYFVNSDPARNFACDYSAVPAEIWARTQLLYVCSPGNPTGAVLTLDDWRELFALSDRYGFVIASDECYSEIYFDEAKPPLGGLEAAHKLGRGFERLVMLSSLSKRSNVPGMRSGFVAGDAAILKDFLLYRTYHGAALSTVFQNASIAAWNDEAHVRENRAKYLQKFSTVTPMLAEVLDVRLPDAAFYLWADVSRTGLTDTVFAQRLYADYNVTVLPGSFLARTAHGVNPGRNFVRMALVADVDECTQGAQRIVDFCRALAG”, the protein production result is on record as “not failed”. As to “VPSLATAIGSSGDRPAALAELIGIIQNDGIRLPPVRIDSLHFAADTPYDTELIINPELGQRVLPSEVATAMREALSQVVDGGTAKRVQGTFKMQDGSVLAMGGKTGTGDNRIESIGAGGRILSSRAINRTATFVFYIGDNHFGALTAFVPGRAAEGFRFTSALPVQVLKGMAPILTPYLENHGQAMCNAPLADPPTGA”, the protein production result was “failed”.

In the case of “VRGFLIVGNKAFTQPFSLNDLPGAGRMDVLCRCTSQALFISHGIRRDVEVYLLLLGPPSPPKSILIKGDEVRRMSPDERNVAGHIKKALAVECGKSWKKVHSGVYVSRKGLEELIEELSEKYSIIYLKEDGVDISNAQLPPNPLFVIGDHEGLTEEQEKVVERYAALKLSLSPLSLLAEQCVVIAHHHLDRLQF”, the protein production result is “not failed”.

In the case of “VRIVLVGSGNLATQTALALSEAASPPVQVWSRNAEHAERLASMLPGATATDRTEELLCDAELYLLAVSDHALESVAATLPPTSGIWAHTAGSMPMDTLRPYHAQIGVFYPLQTFSRERRVDYSSIPIYIEGNDESVVRLLESVARLISRNVLRCT”, the protein production entry is “failed”. For the sequence “VRTLWISDVHLGTRDCQAEHLSAFLKRYQADKVYLVGDIIDGWKLRGGMYWPQAHTNVIRRLLTMSKRGTEVIYVTGNHDEFLRRYSKLILGNIQLVDEAEHVTADGRRFLVIHGDQFDVITRYHRWLAFLGDSAYEFTLTLNRWLNHWRAKYGYGYWSLSAYLKHKVKSAVNFISDFEEAIAHECVKRGLDGVVCGHIHHAEIRQVGGVEYLNCGDWVESCTALIEHLDGNIELFRLA”, the protein production entry was “failed”. “VSEEEIRMLVAESHEAGVIDAHERDMMNRVMRLGDRTADSLMTPRNRIAWLDANAEPERNLHVMREHEFSRYPVYRGSDQDIAGVLEVKSLVTRMDGHGAQLFQNLRDTLFVSESTHAMKLLEIFREEQQSMALVVDEYGEIRGLVTISDLMGAVVGRLQSVENTDD”: the protein production entry was “failed”. In the case of “VTSDNAAFEGTFKEMFRRHAAGVAIITVNYNGTPYGFTATSVASLSAQPPRFTFNMARSSSSWPAIANTTHIGVHMLGLDNQELADRFARTKNRFEGDHWELGPYEVPILKDVAGWLIGKIQMRLSFENNAVVVVEVVEGQVGEDGTPLLYHSGAYSQPVPLDYEI” it was “not failed”. Take “VWAHYEEQPVEEVMPVLEEKERSASYKPVFVTEITDDLHFYVQDVETGTQLEKLMENMRNDIASHPPVEGSYAPRRGEFCIAKFVDGEWYRARVEKVESPAKIHVFYIDYGNREVLPSTRLGTLSPAFSTRVLPAQATEYAFAFIQVPQDDDARTDAVDSVVRDIQNTQCLLNVEHLSAGCPHVTLQFADSKGDVGLGLVKEGLVMVEVRKEKQFQKVITEYLNAQESAKSARLNLWRYGDFRADDADEFGYSR”: the protein production result was “failed”. Turning to “VWEFYMPTDVFFGEKILEKRGNIIDLLGKRALVVTGKSSSKKNGSLDDLKKLLDETEISYEIFDEVEENPSFDNVMKAVERYRNDSFDFVVGLGGGSPMDFAKAVAVLLKEKDLSVEDLYDREKVKHWLPVVEIPTTAGTGSEVTPYSILTDPEGNKRGCTLMFPVYAFLDPRYTYSMSDELTLSTGVDALSHAVEGYLSRKSTPPSDALAIEAMKIIHRNLPKAIEGNREARKKMFVASCLAGMVIAQTGTTLAHALGYPLTTEKGIKHGKATGMVLPFVMEVMKEEIPEKVDTVNHIFGGSLLKFLKELGLYEKVAVSSEELEKWVEKGSRAKHLKNTPGTFTPEKIRNIYREALGV”, the protein production result is “not failed”. Take “VYGSEVESKIIEFTIVGADEIIAEKLGISVGDFVYKIIRLRIIHSIPTIMEHTWMPIAVIPGVEASVLEESIYSYIQNKLGLKVGTSVVRVKGIRPDDKEKQFMNLTNQDFLMRVEQVAYLTDGRTFEYSYADHLPETFEFETVITAKSYKEA”: the protein production result was “not failed”. With “WMVQDSVGSGAALASLEGEETGRLWLAAQPEHGFQTLQGLAYALAREVRRLQPDSPYRLAGKGVLGALAYEVGLQLRGMGQTVACVALEGAPAWVRQSEALAVERSQASLPAWLRRCLSSYVPEPGDFPLQPTNMPASAEAFWRALG”, the protein production entry is “failed”. On to “WQWDLATNKFIYSDNQHRLLGVERDSFESSNDAFINFVHPEDRHVIKNGERMVLDEQQSSVAFFRVIRKDGQMRYFKSIGKLLTDSSGNKILIGINNDITEEH”, for which the protein production result is on record as “failed”. “WRQRDEAEFTGVDDIPVRFVRFRAQHHDRVVVICPGRIESYVKYAELAYDLFHLGFDVLIIDHRGQGRSGRLLADPHLGHVNRFNDYVDDLAAFWQQEVQPGPWRKRYILAHSMGGAISTLFLQRHPGVCDAIALTAPMFGIVIRMPSFMARQILNWAEAHPRFRDGYAIGTGRWRALPFAINVLTHSRQRYRRNLRFYADDPTIRVGGPTYHWVRESILAGEQVLAGAGDDATPTLLLQAEEERVVDNRMHDRFCELRTAAGHPVEGGRPLVIKGAYHEILFEKDAMRSVALHAIVDFFNRHN”: the protein production entry is “failed”. As for “WWNWKGHEVHLDCFRNEKAPVKVILLHGVGTNGRQMSMILGGPLSKDGFETIAIDMPTYGVTKVKKGSVVKYDDWVDLACDYIDYEQQRDDRPIVLYGLSAGGMETYHVAAKNKKVKGIIGMTFLDQKNQQVRDETAKNLVMSRVGIPMAGIACNIGLENFKMKMSTASKMSALCNNEKVMEIFNRDKTSAANKASMRFLDSYGNYQPAMEPEDFDVCPILLTQPEQDKWTPLHLSTPFLNKIKKVDVKIVMLENGGHYPVEQPALDQMHDAIVEFIYKVTK”, the protein production entry is “failed”. As for “XRKPILAALTLAGLGLAQEFITIGSGSTTGVYFPVATGIAKLVNDANVGIRANARSTGGSVANINAINAGEFEXALAQNDIAYYAYQGCCIPAFEGKPVKTIRALAALYPEVVHVVARKDAGIRTVADLKGKRVVVGDVGSGTEQNARQILEAYGLTFDDLGQAIRVSASQGIQLXQDKRADALFYTVGLGASAIQQLALTTPIALVAVDLNRIQAIAKKYPFYVGFNIPGGTYKGVDVTTPTVAVQAXLIASERLSEETVYKFXKAVFGNLEAFKKIHPNLERFFGLEKAVKGLPIPLHPGAERFYKEAGVLK”, the protein production entry is “not failed”. As for “YIGLVNSFAQKKKLSVNYEQCEPNSELPQRFICKCKIGQTMYGTGSGVTKQEAKQLAAKEAYQKLLKSPPKTAGT”, the entry is “not failed”; as for “YPLRKTQAVQSTQFDSRHSFVTKLKPYADKAARMLGVDSSLLIAQAALETGWGQKMVKNARGNSNNLFNIKADRSWQGDKVATQTLEYHNNVPVVEKAAFRSYASFDESFNDYVRFLENNPRYTNALDHGGNSERFIHGIHRAGYATDPQYADKVLRVKAQIDQMNL”, “failed”; as for “YRQSQSRAARLRLLVDTGQELIQLPPEAMRKCVLQRACAFVAMDHGLLLEWGADNGVQTTARHGSKERLSTLETTADPLAIGPQWLERPGTHLPCVLLLPLRGADEGSFGTLVLANSVAISAPDGEDIESLQLLATLLAAHLENNRLLEALVARDRT”, “not failed”. In the case of “YWGPLDVGEAKSLPGMEDPKLVYIPSIAPSNMVLYRGDKYSELDGKILVGALKLTHINVVGINDGKLTESQRLLEKLGERIRDITISPDGYIYFSTDSGKIFRLTEQ” it was “failed”. As for “YYNPVRYPERTKERRDLVLRLLMQQNMLTSQQYEQAVSRPLDTQSKPRIASRQPAYFQQLNIELKEKVGDRFKAETGL”, the protein production result was “failed”.
